According to US20130209454A1:
Numbering of substitutions follows the chain as printed. Numbers in names are those of the source.

What was measured:
Experiment in all cases: cell-based or functional assay
[1] = target: HIV-1 Env of strain 211-9 (HIV-1)
[2] = target: HIV-1 Env of strain 231965.c01 (HIV-1)
[3] = target: HIV-1 strain Q461.e2 envelope (gp120) (HIV-1)
[4] = target: HIV-1 Env of strain CNE21 (HIV-1)
[5] = target: HIV-1 strain Q23.17 envelope (gp120) (HIV-1)
[6] = target: HIV-1 Env of strain 3103.v3.c10 (HIV-1)
[7] = target: HIV-1 Env of strain R2184.c04 (HIV-1)
[8] = target: HIV-1 strain 928-28 envelope (gp120) (HIV-1)
[9] = target: HIV-1 Env of strain QH0692.42 (HIV-1)
[10] = target: HIV-1 Env of strain C2101.c01 (HIV-1)
[11] = target: HIV-1 Env of strain THRO4156.18 (HIV-1)
[12] = target: HIV-1 strain ZM249M.PL1 envelope (gp120) (HIV-1)
[13] = target: HIV-1 Env of strain Du422.1 (HIV-1)
[14] = target: HIV-1 strain 6545.v4.c1 envelope (gp120) (HIV-1)
[15] = target: HIV-1 strain ZM197M.PB7 envelope (gp120) (HIV-1)
[16] = target: HIV-1 Env of strain T251-18 (HIV-1)
[17] = target: HIV-1 Env of strain ZM53M.PB12 (HIV-1)
[18] = target: HIV-1 Env of strain 703357.C02 (HIV-1)
[19] = target: HIV-1 strain 231965.c01 envelope (gp120) (HIV-1)
[20] = target: HIV-1 Env of strain 1056_10_TA11_1826 (HIV-1)
[21] = target: HIV-1 Env of strain WITO4160.33 (HIV-1)
[22] = target: HIV-1 strain 1006_11_C3_1601 envelope (gp120) (HIV-1)
[23] = target: HIV-1 Env of strain 0330.v4.c3 (HIV-1)
[24] = target: HIV-1 Env of strain P0402_c2_11 (HIV-1)
[25] = target: HIV-1 Env of strain Du156.12 (HIV-1)
[26] = target: HIV-1 Env of strain CAAN5342.A2 (HIV-1)
[27] = target: HIV-1 strain 62357_14_D3_4589 envelope (gp120) (HIV-1)
[28] = target: HIV-1 strain 0330.v4.c3 envelope (gp120) (HIV-1)
[29] = target: HIV-1 strain 3415.v1.c1 envelope (gp120) (HIV-1)
[30] = target: HIV-1 strain 231966.c02 envelope (gp120) (HIV-1)
[31] = target: HIV-1 strain ZM135M.PL10a envelope (gp120) (HIV-1)
[32] = target: HIV-1 strain 6535.3 envelope (gp120) (HIV-1)
[33] = target: HIV-1 strain 3817.v2.c59 envelope (gp120) (HIV-1)
[34] = target: HIV-1 Env of strain 3718.v3.c11 (HIV-1)
[35] = target: HIV-1 Env of strain C1080.c03 (HIV-1)
[36] = target: HIV-1 Env of strain 0815.v3.c3 (HIV-1)
[37] = target: HIV-1 Env of strain Ce0393_C3 (HIV-1)
[38] = target: HIV-1 Env of strain Q23.17 (HIV-1)
[39] = target: HIV-1 strain T257-31 envelope (gp120) (HIV-1)
[40] = target: HIV-1 strain Du156.12 envelope (gp120) (HIV-1)
[41] = target: HIV-1 Env of strain ZM197M.PB7 (HIV-1)
[42] = target: HIV-1 strain Du172.17 envelope (gp120) (HIV-1)
[43] = target: HIV-1 strain REJO4541.67 envelope (gp120) (HIV-1)
[44] = target: HIV-1 Env of strain Ce703010054_2A2 (HIV-1)
[45] = target: HIV-1 strain Du422.1 envelope (gp120) (HIV-1)
[46] = target: HIV-1 strain 6480.v4.c25 envelope (gp120) (HIV-1)
[47] = target: HIV-1 strain T251-18 envelope (gp120) (HIV-1)
[48] = target: HIV-1 strain WITO4160.33 envelope (gp120) (HIV-1)
[49] = target: HIV-1 strain 703357.C02 envelope (gp120) (HIV-1)
[50] = target: HIV-1 strain 620345.c01 envelope (gp120) (HIV-1)

B1: NIH45-46^G54Y IgG (antibody, name in Kabat numbering, V domains shown)
VH: QVRLSQSGGQMKKPGESMRLSCRASGYEFLNCPINWIRLAPGRRPEWMGWLKPRYGAVNYARKFQGRVTMTRDVYSDTAFLELRSLTSDDTAVYFCTRGKYCTARDYYNWDFEHWGRGAPVTVSS
VL: EIVLTQSPATLSLSPGETAIISCRTSQSGSLAWYQQRPGQAPRLVIYSGSTRAAGIPDRFSGSRWGADYNLSISNLESGDFGVYYCQQYEFFGQGTKVQVDI
For B1, the neutralization IC50 [1] was greater than 50 µg/mL, the neutralization IC50 [2] was 0.025 µg/mL and the neutralization IC80 [3] was 0.103 µg/mL. It also gave a neutralization IC50 [4] of 0.07 µg/mL, a neutralization IC80 [5] of 0.06 µg/mL and a neutralization IC50 [6] of 0.3 µg/mL. The neutralization IC50 [7] was 0.015 µg/mL, the neutralization IC80 [8] was 0.33 µg/mL and the neutralization IC50 [9] was 0.52 µg/mL. The neutralization IC50 [10] was 0.09 µg/mL, the neutralization IC50 [11] was 0.66 µg/mL and the neutralization IC80 [12] was 0.011 µg/mL. For the same binder, the neutralization IC50 [13] was greater than 50 µg/mL, the neutralization IC80 [14] was greater than 50 µg/mL and the neutralization IC80 [15] was 0.21 µg/mL. It also gave a neutralization IC50 [16] of 0.35 µg/mL, a neutralization IC50 [17] of 0.06 µg/mL and a neutralization IC50 [18] of 5.6 µg/mL. The neutralization IC80 [19] was 0.054 µg/mL, the neutralization IC50 [20] was 0.044 µg/mL and the neutralization IC50 [21] was 0.03 µg/mL. The neutralization IC80 [22] was 0.021 µg/mL, the neutralization IC50 [23] was 0.03 µg/mL and the neutralization IC50 [24] was 0.012 µg/mL. The neutralization IC50 [25] was 0.007 µg/mL, the neutralization IC50 [26] was 0.1 µg/mL and the neutralization IC80 [27] was 0.09 µg/mL. The neutralization IC80 [28] was 0.09 µg/mL, the neutralization IC80 [29] was 0.037 µg/mL and the neutralization IC80 [30] was 0.23 µg/mL. For the same binder, the neutralization IC80 [31] was 0.3 µg/mL, the neutralization IC80 [32] was 0.24 µg/mL and the neutralization IC80 [33] was greater than 50 µg/mL. The neutralization IC50 [34] was 0.3 µg/mL, the neutralization IC50 [35] was 0.29 µg/mL and the neutralization IC50 [36] was less than 0.001 µg/mL. For the same binder, the neutralization IC50 [37] was 0.036 µg/mL, the neutralization IC50 [38] was 0.02 µg/mL and the neutralization IC80 [39] was 0.67 µg/mL. The neutralization IC80 [40] was 0.026 µg/mL, the neutralization IC50 [41] was 0.07 µg/mL and the neutralization IC80 [42] was greater than 50 µg/mL. It also gave a neutralization IC80 [43] of 0.02 µg/mL, a neutralization IC50 [44] of 0.022 µg/mL and a neutralization IC80 [45] greater than 50 µg/mL. The neutralization IC80 [46] was 0.051 µg/mL, the neutralization IC80 [47] was 1.16 µg/mL and the neutralization IC80 [48] was 0.09 µg/mL. The neutralization IC80 [49] was 30.6 µg/mL and the neutralization IC80 [50] was greater than 50 µg/mL.

B2: NIH45-46^G54W (antibody, V domains shown)
VH: B1 VH with Y55W
VL: B1 VL
B2 gave an IC50, pseudovirus neutralization [1] of 16.4 µg/mL, an IC50, pseudovirus neutralization [2] of 0.001 µg/mL and an IC50, pseudovirus neutralization [4] of 0.03 µg/mL. The IC50, pseudovirus neutralization [6] was 0.2 µg/mL, the IC50, pseudovirus neutralization [7] was 0.005 µg/mL and the IC50, pseudovirus neutralization [9] was 0.37 µg/mL. It also gave an IC50, pseudovirus neutralization [10] of 0.04 µg/mL, an IC50, pseudovirus neutralization [11] of 0.54 µg/mL and an IC50, pseudovirus neutralization [13] greater than 50 µg/mL. For the same binder, the IC50, pseudovirus neutralization [16] was 0.26 µg/mL, the IC50, pseudovirus neutralization [17] was 0.04 µg/mL and the IC50, pseudovirus neutralization [20] was 0.024 µg/mL. It also gave an IC50, pseudovirus neutralization [21] of 0.01 µg/mL, an IC50, pseudovirus neutralization [24] of 0.003 µg/mL and an IC50, pseudovirus neutralization [25] of 0.001 µg/mL. For the same binder, the IC50, pseudovirus neutralization [26] was 0.07 µg/mL, the IC50, pseudovirus neutralization [35] was 0.2 µg/mL and the IC50, pseudovirus neutralization [36] was 0.001 µg/mL. For the same binder, the IC50, pseudovirus neutralization [37] was 0.013 µg/mL, the IC50, pseudovirus neutralization [38] was 0.01 µg/mL and the IC50, pseudovirus neutralization [41] was 0.04 µg/mL. The IC50, pseudovirus neutralization [44] was 0.027 µg/mL.

B3: NIH45-46^G54W(HC), S28Y(LC) (antibody, V domains shown)
VH: B1 VH with Y55W
VL: B1 VL with S28Y
B3 showed an IC50, pseudovirus neutralization [1] of 0.253 µg/mL, an IC50, pseudovirus neutralization [2] of 0.001 µg/mL and an IC50, pseudovirus neutralization [4] of 0.001 µg/mL. For the same binder, the IC50, pseudovirus neutralization [6] was 0.181 µg/mL, the IC50, pseudovirus neutralization [7] was 0.008 µg/mL and the IC50, pseudovirus neutralization [9] was 0.216 µg/mL. The IC50, pseudovirus neutralization [10] was 0.044 µg/mL, the IC50, pseudovirus neutralization [11] was 0.685 µg/mL and the IC50, pseudovirus neutralization [13] was 8.47 µg/mL. It also gave an IC50, pseudovirus neutralization [16] of 0.336 µg/mL, an IC50, pseudovirus neutralization [17] of 0.091 µg/mL and an IC50, pseudovirus neutralization [20] of 0.057 µg/mL. It also gave an IC50, pseudovirus neutralization [21] of 0.015 µg/mL, an IC50, pseudovirus neutralization [24] of 0.01 µg/mL and an IC50, pseudovirus neutralization [25] of 0.003 µg/mL. It also gave an IC50, pseudovirus neutralization [26] of 0.078 µg/mL, an IC50, pseudovirus neutralization [35] of 0.154 µg/mL and an IC50, pseudovirus neutralization [36] of 0.001 µg/mL. The IC50, pseudovirus neutralization [37] was 0.046 µg/mL, the IC50, pseudovirus neutralization [38] was 0.015 µg/mL and the IC50, pseudovirus neutralization [41] was 0.074 µg/mL. It also gave an IC50, pseudovirus neutralization [44] of 0.016 µg/mL.
